Assay results from the supplement of paper PMC10567573.

B1: SPOPL (parent)
chain: AKREETKAMESQRAYRFVQGKDWG
B2: SNAP91 (parent)
chain: FATASAAVPVSTSKPSSDLLDLQP

Variants of: B1
Test: protein stability index of a GFP-peptide fusion (GPS, HEK-293T) (PSI 1-6); higher = more stable
Details: c terminus: a fixed tail appended
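Further: lentivirally expressed fusions sorted by FACS into six bins by GFP to DsRed ratio, PSI derived from sequencing read proportions per bin multiplied by bin number.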

Variant	protein stability index
HKREETKAMESQRAYRFVQGKDWG [A1H]	3.61
NKREETKAMESQRAYRFVQGKDWG [A1N]	3.14
YKREETKAMESQRAYRFVQGKDWG [A1Y]	2.57
FKREETKAMESQRAYRFVQGKDWG [A1F]	3.61
QKREETKAMESQRAYRFVQGKDWG [A1Q]	4.09
TKREETKAMESQRAYRFVQGKDWG [A1T]	2.93

Variants of: B2
Test: as above
Details: c terminus: a fixed tail appended

Variant	protein stability index
FATASAAVPVSTSKPSSDLLDLQF [P24F]	2.8
FATASAAVPVSTSKPSSDLLDLQV [P24V]	3.41
FATASAAVPVSTSKPSSDLLDLQK [P24K]	4.34
FATASAAVPVSTSKPSSDLLDLQA [P24A]	3.94
FATASAAVPVSTSKPSSDLLDLQL [P24L]	3.1
FATASAAVPVSTSKPSSDLLDLQD [P24D]	4.52
FATASAAVPVSTSKPSSDLLDLQS [P24S]	3.64
FATASAAVPVSTSKPSSDLLDLQR [P24R]	3.71
FATASAAVPVSTSKPSSDLLDLQW [P24W]	2.35
FATASAAVPVSTSKPSSDLLDLQN [P24N]	3.43
FATASAAVPVSTSKPSSDLLDLQC [P24C]	3.56
FATASAAVPVSTSKPSSDLLDLQE [P24E]	4.53
FATASAAVPVSTSKPSSDLLDLQT [P24T]	3.88
FATASAAVPVSTSKPSSDLLDLQI [P24I]	3.3
FATASAAVPVSTSKPSSDLLDLQH [P24H]	3.74
FATASAAVPVSTSKPSSDLLDLQM [P24M]	3.52
FATASAAVPVSTSKPSSDLLDLQY [P24Y]	3.27
FATASAAVPVSTSKPSSDLLDLQQ [P24Q]	4.06
FATASAAVPVSTSKPSSDLLDLQG [P24G]	3.63
FATASAAVPVSTSKPSSDLLDAQP [L22A]	4.49
FATASAAVPVSTSKPSSDLLDYQP [L22Y]	3.99
FATASAAVPVSTSKPSSDLLDHQP [L22H]	4.07

Variant	protein stability index
FATASAAVPVSTSKPSSDLLDMQP [L22M]	3.87
FATASAAVPVSTSKPSSDLLDTQP [L22T]	4.3
FATASAAVPVSTSKPSSDLLDPQP [L22P]	4.4
FATASAAVPVSTSKPSSDLLDRQP [L22R]	4.14
FATASAAVPVSTSKPSSDLLDKQP [L22K]	4.16
FATASAAVPVSTSKPSSDLLDGQP [L22G]	3.93
FATASAAVPVSTSKPSSDLLDSQP [L22S]	4.16
FATASAAVPVSTSKPSSDLLDNQP [L22N]	4.4
FATASAAVPVSTSKPSSDLLDQQP [L22Q]	4.3
FATASAAVPVSTSKPSSDLLDIQP [L22I]	3.71
FATASAAVPVSTSKPSSDLLDFQP [L22F]	3.59
FATASAAVPVSTSKPSSDLLDVQP [L22V]	3.85
FATASAAVPVSTSKPSSDLLDDQP [L22D]	4.22
FATASAAVPVSTSKPSSDLLDWQP [L22W]	2.96
FATASAAVPVSTSKPSSDLLDEQP [L22E]	4.76
FATASAAVPVSTSKPSSDLLDCQP [L22C]	3.84
FATASAAVPVSTSKPSSDLLDLKP [Q23K]	3.42
FATASAAVPVSTSKPSSDLLDLPP [Q23P]	4.13
FATASAAVPVSTSKPSSDLLDLRP [Q23R]	3.34
FATASAAVPVSTSKPSSDLLDLFP [Q23F]	2.7
FATASAAVPVSTSKPSSDLLDLEP [Q23E]	4.46
FATASAAVPVSTSKPSSDLLDLCP [Q23C]	3.61

Variant	protein stability index
FATASAAVPVSTSKPSSDLLDLGP [Q23G]	3.79
FATASAAVPVSTSKPSSDLLDLHP [Q23H]	3.35
FATASAAVPVSTSKPSSDLLDLDP [Q23D]	3.97
FATASAAVPVSTSKPSSDLLDLVP [Q23V]	3.4
FATASAAVPVSTSKPSSDLLDLLP [Q23L]	3.38
FATASAAVPVSTSKPSSDLLDLWP [Q23W]	2.69
FATASAAVPVSTSKPSSDLLDLSP [Q23S]	4.18
FATASAAVPVSTSKPSSDLLDLTP [Q23T]	3.96
FATASAAVPVSTSKPSSDLLDLYP [Q23Y]	2.8
FATASAAVPVSTSKPSSDLLDLMP [Q23M]	3.29
FATASAAVPVSTSKPSSDLLDLAP [Q23A]	3.5
FATASAAVPVSTSKPSSDLLDLNP [Q23N]	4.08
FATASAAVPVSTSKPSSDLLDLIP [Q23I]	2.92
FATASAAVPVSTSKPSSDLLTLQP [D21T]	3.51
FATASAAVPVSTSKPSSDLLKLQP [D21K]	3.41
FATASAAVPVSTSKPSSDLLNLQP [D21N]	3.59
FATASAAVPVSTSKPSSDLLELQP [D21E]	4.22
FATASAAVPVSTSKPSSDLLILQP [D21I]	2.93
FATASAAVPVSTSKPSSDLLMLQP [D21M]	3.23
FATASAAVPVSTSKPSSDLLLLQP [D21L]	2.48
FATASAAVPVSTSKPSSDLLWLQP [D21W]	1.78
FATASAAVPVSTSKPSSDLLQLQP [D21Q]	3.57

Variant	protein stability index
FATASAAVPVSTSKPSSDLLFLQP [D21F]	2.52
FATASAAVPVSTSKPSSDLLRLQP [D21R]	3.28
FATASAAVPVSTSKPSSDLLYLQP [D21Y]	2.67
FATASAAVPVSTSKPSSDLLPLQP [D21P]	3.79
FATASAAVPVSTSKPSSDLLGLQP [D21G]	4.09
FATASAAVPVSTSKPSSDLLALQP [D21A]	3.4
FATASAAVPVSTSKPSSDLLHLQP [D21H]	3.27
FATASAAVPVSTSKPSSDLLVLQP [D21V]	3.23
FATASAAVPVSTSKPSSDLLSLQP [D21S]	3.25
FATASAAVPVSTSKPSSDLLCLQP [D21C]	2.91
FATASAAVPVSTSKPSSDLSDLQP [L20S]	4.29
FATASAAVPVSTSKPSSDLWDLQP [L20W]	2.97
FATASAAVPVSTSKPSSDLQDLQP [L20Q]	4.14
FATASAAVPVSTSKPSSDLMDLQP [L20M]	3.74
FATASAAVPVSTSKPSSDLIDLQP [L20I]	3.62
FATASAAVPVSTSKPSSDLTDLQP [L20T]	3.92
FATASAAVPVSTSKPSSDLNDLQP [L20N]	3.61
FATASAAVPVSTSKPSSDLYDLQP [L20Y]	3.74
FATASAAVPVSTSKPSSDLRDLQP [L20R]	4.09
FATASAAVPVSTSKPSSDLPDLQP [L20P]	4.36
FATASAAVPVSTSKPSSDLKDLQP [L20K]	4.33
FATASAAVPVSTSKPSSDLVDLQP [L20V]	4.12
